Earlier results as cited in paper PMC2652713, “Molecular Blocking of CD23 Supports Its Role in the Pathogenesis of Arthritis” (PLoS ONE, 2009).

Tested on: human macrophages and epithelial cells
Text: Authors reported overexpression of membrane bound and sCD23 during acute juvenile or adult arthritis, with a clear pro-inflammatory property in this form. In the present study, we report similar observations in peripheral and synovial liquid monocytes/macrophages from adult arthritic patients (Figure 5).

B1: IL-10: a well-known immunoregulator and Th-1 inhibitor cytokine (protein, UniProt P22301 19-178, looked up)
Interleukin-10: SPGQGTQSENSCTHFPGNLPNMLRDLRDAFSRVKTFFQMKDQLDNLLLKESLLEDFKGYLGCQALSEMIQFYLEEVMPQAENQDPDIKAHVNSLGENLKTLRLRLRRCHRFLPCENKSKAVEQVKNAFNKLQEKGIYKAMSEFDIFINYIEAYMTMKIRN
CD23-mediated TNF-α production: decreased | CD23-mediated nitric oxide production: decreased
